Experimental findings from the supplement of paper PMC5998384 are described below.

Data set [1] relates to HeLa Kyoto. Description: solubility in G1/S (NP-40 vs SDS abundance) (log2 ratio); higher = more soluble. The conditions noted are these: cell cycle stage: G1/S.
For data set [2], the system named is HeLa Kyoto. Put plainly: melting temperature (median over replicates), in situ; higher = more thermally stable.
Data set [3] relates to HeLa Kyoto. Put plainly: solubility change mitosis vs G1/S (difference of NP-40 vs SDS log2 ratios) (log2 ratio difference); higher = more soluble in mitosis.
Data set [4] relates to HeLa Kyoto. Description: thermal stability score vs G1/S (z-score of summed log2 fold changes over temperatures); higher = more thermally stable than in G1/S.
Setting [5] is: cell cycle stage: early G1 (4.5 h after nocodazole release).
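Wherever melting temperature (median over replicates), in situ is given: HeLa Kyoto cells synchronized by double thymidine or nocodazole block, proteins quantified by TMT10plex mass spectrometry, three independent biological replicates.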
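Wherever solubility change mitosis vs G1/S (difference of NP-40 vs SDS log2 ratios) is given: synchronized HeLa Kyoto cells (double thymidine block for G1/S, nocodazole release for mitosis), protein amounts in NP-40 versus SDS lysates quantified by mass spectrometry, three biological replicates.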
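Wherever solubility in G1/S (NP-40 vs SDS abundance) is given: HeLa Kyoto cells arrested at G1/S by double thymidine block, proteins quantified by TMT10plex mass spectrometry in mild NP-40 versus SDS extracts, three biological replicates.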
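Wherever thermal stability score vs G1/S (z-score of summed log2 fold changes over temperatures) is given: synchronized HeLa Kyoto cells, proteins quantified by TMT10plex mass spectrometry, three biological replicates, mitosis taken 0.5 h after nocodazole release, G1/S directly after double thymidine block.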

“MFGRSRSWVGGGHGKTSRNIHSLDHLKYLYHVLTKNTTVTEQNRNLLVETIRSITEILIWGDQNDSSVFDFFLEKNMFVFFLNILRQKSGRYVCVQLLQTLNILFENISHETSLYYLLSNNYVNSIIVHKFDFSDEEIMAYYISFLKTLSLKLNNHTVHFFYNEHTNDFALYTEAIKFFNHPESMVRIAVRTITLNVYKVSLDNQAMLHYIRDKTAVPYFSNLVWFIGSHVIELDDCVQTDEEHRNRGKLSDLVAEHLDHLHYLNDILIINCEFLNDVLTDHLLNRLFLPLYVYSLENQDKGGERPKISLPVSLYLLSQVFLIIHHAPLVNSLAEVILNGDLSEMYAKTEQDIQRSSAKPSIRCFIKPTETLERSLEMNKHKGKRRVQKRPNYKNVGEEEDEEKGPTEDAQEDAEKAKGTEGGSKGIKTSGESEEIEMVIMERSKLSELAASTSVQEQNTTDEEKSAAATCSESTQWSRPFLDMVYHALDSPDDDYHALFVLCLLYAMSHNKGMDPEKLERIQLPVPNAAEKTTYNHPLAERLIRIMNNAAQPDGKIRLATLELSCLLLKQQVLMSAGCIMKDVHLACLEGAREESVHLVRHFYKGEDIFLDMFEDEYRSMTMKPMNVEYLMMDASILLPPTGTPLTGIDFVKRLPCGDVEKTRRAIRVFFMLRSLSLQLRGEPETQLPLTREEDLIKTDDVLDLNNSDLIACTVITKDGGMVQRFLAVDIYQMSLVEPDVSRLGWGVVKFAGLLQDMQVTGVEDDSRALNITIHKPASSPHSKPFPILQATFIFSDHIRCIIAKQRLAKGRIQARRMKMQRIAALLDLPIQPTTEVLGFGLGSSTSTQHLPFRFYDQGRRGSSDPTVQRSVFASVDKVPGFAVAQCINQHSSPSLSSQSPPSASGSPSGSGSTSHCDSGGTSSSSTPSTAQSPADAPMSPELPKPHLPDQLVIVNETEADSKPSKNVARSAAVETASLSPSLVPARQPTISLLCEDTADTLSVESLTLVPPVDPHSLRSLTGMPPLSTPAAACTEPVGEEAACAEPVGTAED [CLEC16A]”: in the data set with HeLa Kyoto [1], the “solubility in G1/S (log2)” value is -0.224. Further, the values for the melting temperature in the data set with HeLa Kyoto [2] (cell cycle stage: G1/S) and with HeLa Kyoto [2] (cell cycle stage: mitosis) were 55.7 °C and 57.4 °C, respectively. Also, the “solubility change mitosis (log2)” value with HeLa Kyoto [3] is -0.241. In addition, the thermal stability score was -1.42 in the data set on HeLa Kyoto [4] (setting [5]) and -1.87 in the data set with HeLa Kyoto [4] (cell cycle stage: mitosis).

Regarding “MAGTSAPGSKRRSEPPAPRPGPPPGTGHPPSKRARGFSAAAAPDPDDPFGAHGDFTADDLEELDTLASQALSQCPAAARDVSSDHKVHRLLDGMSKNPSGKNRETVPIKDNFELEVLQAQYKELKEKMKVMEEEVLIKNGEIKILRDSLHQTESVLEEQRRSHFLLEQEKTQALSDKEKEFSKKLQSLQSELQFKDAEMNELRTKLQTSERANKLAAPSVSHVSPRKNPSVVIKPEACSPQFGKTSFPTKESFSANMSLPHPCQTESGYKPLVGREDSKPHSLRGDSIKQEEAQKSFVDSWRQRSNTQGSILINLLLKQPLIPGSSLSLCHLLSSSSESPAGTPLQPPGFGSTLAGMSGLRTTGSYDGSFSLSALREAQNLAFTGLNLVARNECSRDGDPAEGGRRAFPLCQLPGAVHFLPLVQFFIGLHCQALQDLAAAKRSGAPGDSPTHSSCVSSGVETNPEDSVCILEGFSVTALSILQHLVCHSGAVVSLLLSGVGADSAAGEGNRSLVHRLSDGDMTSALRGVADDQGQHPLLKMLLHLLAFSSAATGHLQASVLTQCLKVLVKLAENTSCDFLPRFQCVFQVLPKCLSPETPLPSVLLAVELLSLLADHDQLAPQLCSHSEGCLLLLLYMYITSRPDRVALETQWLQLEQEVVWLLAKLGVQSPLPPVTGSNCQCNVEVVRALTVMLHRQWLTVRRAGGPPRTDQQRRTVRCLRDTVLLLHGLSQKDKLFMMHCVEVLHQFDQVMPGVSMLIRGLPDVTDCEEAALDDLCAAETDVEDPEVECG [ATRIP]”, the “solubility in G1/S (log2)” value in the data set with HeLa Kyoto [1] is 0.243. Besides, the melting temperature with HeLa Kyoto [2] (cell cycle stage: G1/S) came to 50.9 °C; in the data set with HeLa Kyoto [2] (cell cycle stage: mitosis), 51.5 °C. In addition, in the data set on HeLa Kyoto [3], the “solubility change mitosis (log2)” value amounted to 0.065. For the same substance, the thermal stability score amounted to 0.257 with HeLa Kyoto [4] (setting [5]) and 0.455 in the data set with HeLa Kyoto [4] (cell cycle stage: mitosis).

Consider “MAMQAAKRANIRLPPEVNRILYIRNLPYKITAEEMYDIFGKYGPIRQIRVGNTPETRGTAYVVYEDIFDAKNACDHLSGFNVCNRYLVVLYYNANRAFQKMDTKKKEEQLKLLKEKYGINTDPPK [SF3B6]”, for which the “solubility in G1/S (log2)” value in the data set on HeLa Kyoto [1] is -0.381. For the same substance, the melting temperature in the data set with HeLa Kyoto [2] (cell cycle stage: G1/S) was 51.1 °C; in the data set on HeLa Kyoto [2] (cell cycle stage: mitosis), 51.2 °C. Further, the “solubility change mitosis (log2)” value with HeLa Kyoto [3] was determined as 0.618. Besides, the thermal stability score is -2.41 in the data set on HeLa Kyoto [4] (setting [5]) and -2.34 in the data set on HeLa Kyoto [4] (cell cycle stage: mitosis).

Consider “MAREKEMQEFTRSFFRGRPDLSTLTHSIVRRRYLAHSGRSHLEPEEKQALKRLVEEELLKMQVDEAASREDKLDLTKKGKRPPTPCSDPERKRFRFNSESESGSEASSPDYFGPPAKNGVAAEVSPAKEENPRRASKAVEESSDEERQRDLPAQRGEESSEEEEKGYKGKTRKKPVVKKQAPGKASVSRKQAREESEESEAEPVQRTAKKVEGNKGTKSLKESEQESEEEILAQKKEQREEEVEEEEKEEDEEKGDWKPRTRSNGRRKSAREERSCKQKSQAKRLLGDSDSEEEQKEAASSGDDSGRDREPPVQRKSEDRTQLKGGKRLSGSSEDEEDSGKGEPTAKGSRKMARLGSTSGEESDLEREVSDSEAGGGPQGERKNRSSKKSSRKGRTRSSSSSSDGSPEAKGGKAGSGRRGEDHPAVMRLKRYIRACGAHRNYKKLLGSCCSHKERLSILRAELEALGMKGTPSLGKCRALKEQREEAAEVASLDVANIISGSGRPRRRTAWNPLGEAAPPGELYRRTLDSDEERPRPAPPDWSHMRGIISSDGESN [HIRIP3]”, for which the “solubility in G1/S (log2)” value in the data set on HeLa Kyoto [1] turned out to be 0.0105. The melting temperature in the data set with HeLa Kyoto [2] (cell cycle stage: G1/S) was 53 °C; with HeLa Kyoto [2] (cell cycle stage: mitosis) it was 52.5 °C. In addition, the “solubility change mitosis (log2)” value with HeLa Kyoto [3] is 0.398. The results for the thermal stability score with HeLa Kyoto [4] (setting [5]) and in the data set on HeLa Kyoto [4] (cell cycle stage: mitosis) were 0.379 and 0.978, respectively.

Consider ATRX, for which, in the data set with HeLa Kyoto [1], the “solubility in G1/S (log2)” value was -1.33. Besides, the melting temperature came out at 49.2 °C with HeLa Kyoto [2] (cell cycle stage: G1/S) and 51.4 °C with HeLa Kyoto [2] (cell cycle stage: mitosis). Further, in the data set on HeLa Kyoto [3], the “solubility change mitosis (log2)” value stood at 0.492. Also, the thermal stability score in the data set with HeLa Kyoto [4] (setting [5]) was -0.452; with HeLa Kyoto [4] (cell cycle stage: mitosis), 0.516.

On to “MGIQGGSVLFGLLLVLAVFCHSGHSLQCYNCPNPTADCKTAVNCSSDFDACLITKAGLQVYNKCWKFEHCNFNDVTTRLRENELTYYCCKKDLCNFNEQLENGGTSLSEKTVLLLVTPFLAAAWSLHP [CD59]”, for which the “solubility in G1/S (log2)” value in the data set on HeLa Kyoto [1] is -0.814. The melting temperature turned out to be 56.8 °C in the data set on HeLa Kyoto [2] (cell cycle stage: G1/S) and 64.9 °C with HeLa Kyoto [2] (cell cycle stage: mitosis). The “solubility change mitosis (log2)” value in the data set with HeLa Kyoto [3] was -0.0336. Also, the thermal stability score in the data set on HeLa Kyoto [4] (setting [5]) was -2.05; in the data set on HeLa Kyoto [4] (cell cycle stage: mitosis), -3.23.
